In article PMC7039684, “Control of cell death/survival balance by the MET dependence receptor” (eLife, 2020):
Each block holds one molecule with its values, some of them ahead of it.

Tests used:
Assay in all cases: FRET or BRET; FLIM-FRET by TCSPC in live co-transfected HEK293T cells, 37°C, L-15 medium; lifetime of the mT2 donor against donor alone; SYFP2 or EYFP fusion as acceptor
BAK-mTurquoise2 = BAK-mTurquoise2 (UniProt Q16611)
BAX-SYFP2 = target: T1, BAX-SYFP2 (UniProt Q07812 1-192); conditions: partners not purified
T1 construct: BAX, pro-apoptotic BCL2 family protein; amplified by PCR from Flag-tagged BAX; Cloned with EcoRI and XhoI into the SYFP2 plasmid; also called SYFP2-tagged BAX; source: HEK293T, transfected, in live cells

BAK-SYFP2 = target: T2, BAK-SYFP2 (UniProt Q16611 1-211); conditions: partners not purified
T2 construct: BAK, pro-apoptotic BCL2 family protein; amplified by PCR from Flag-tagged BAK; Cloned with EcoRI and XhoI into the SYFP2 plasmid; also called SYFP2-BAK; source: HEK293T or IHH cells, transfected, in live cells
T2 sequence (looked up): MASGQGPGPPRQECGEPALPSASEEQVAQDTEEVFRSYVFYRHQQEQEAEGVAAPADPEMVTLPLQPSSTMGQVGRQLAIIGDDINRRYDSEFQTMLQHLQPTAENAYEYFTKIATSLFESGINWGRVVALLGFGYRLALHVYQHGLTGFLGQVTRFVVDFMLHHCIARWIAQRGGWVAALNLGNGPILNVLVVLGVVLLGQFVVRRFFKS

BAX-mTurquoise2 = target: T3, BAX-mTurquoise2 (UniProt Q07812 1-192); conditions: partners not purified
T3 construct: BAX, pro-apoptotic BCL2 family protein; amplified by PCR from Flag-tagged BAX; Cloned with EcoRI and XhoI into the mTurquoise2 plasmid; also called BAX-mT2; mT2-fused BAX; source: HEK293T, transfected, in live cells
T3 sequence (Q07812 whole entry, the tested form may be a part): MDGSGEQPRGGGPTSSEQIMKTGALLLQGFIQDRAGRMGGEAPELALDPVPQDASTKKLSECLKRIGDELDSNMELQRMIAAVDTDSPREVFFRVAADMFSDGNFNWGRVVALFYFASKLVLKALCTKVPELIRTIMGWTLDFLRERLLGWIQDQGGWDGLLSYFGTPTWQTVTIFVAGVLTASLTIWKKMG

T1 sequence (Q07812 whole entry): as the sequence (Q07812 whole entry, the tested form may be a part) above

mean FRET efficiency (BAK-mTurquoise2): < 0.1%
Molecule: free SYFP2 (Super Yellow Fluorescent Protein 2)

mean FRET efficiency (BAX-SYFP2): 2.5%
mean FRET efficiency (BAK-SYFP2): 4%
B1: p40MET-mTurquoise2 (domain or fragment, mouse, UniProt P16056 1001-1374, looked up)
chain: YRATFPEDQFPNSSQNGACRQVQYPLTDLSPILTSGDSDISSPLLQNTVHIDLSALNPELVQAVQHVVIGPSSLIVHFNEVIGRGHFGCVYHGTLLDNDGKKIHCAVKSLNRITDIEEVSQFLTEGIIMKDFSHPNVLSLLGICLRSEGSPLVVLPYMKHGDLRNFIRNETHNPTVKDLIGFGLQVAKGMKYLASKKFVHRDLAARNCMLDEKFTVKVADFGLARDMYDKEYYSVHNKTGAKLPVKWMALESLQTQKFTTKSDVWSFGVLLWELMTRGAPPYPDVNTFDITIYLLQGRRLLQPEYCPDALYEVMLKCWHPKAEMRPSFSELVSRISSIFSTFIGEHYVHVNATYVNVKCVAPYPSLLPSQDNID
notes: limits worked out from the stated caspase sites; also called p40MET-mT2; mT2-p40MET; source: HEK293T or IHH cells, transfected, in live cells

mean FRET efficiency (BAX-mTurquoise2): 4.3%
B2: p40MET-SYFP2 (domain or fragment, mouse, UniProt P16056 1001-1374, looked up)
chain: B1 chain
notes: limits worked out from the stated caspase sites; also called SYFP2-p40MET; source: HEK293T or IHH cells, transfected, in live cells
